Patent publication US20230121197A1, “ANTIBODIES SPECIFICALLY BINDING THE CARBOXYMETHYLATED CATALYTIC SUBUNIT OF PROTEIN PHOSPHATASE 2A” (Medizinische Universität Wien, priority 2020, published 2023)

Key:
HA-PP4c = biological target: T1, HA-PP4c (Mus musculus, UniProt P97470); experiment: Immunoblotting of anti-HA immunoprecipitates of NIH3T3 cells, PP4c; assay type: binding
T1 construct: expressed in transfected cells; host or cells: NIH3T3 mouse fibroblasts, retroviral pBabe hygro HA-PP4c
T1 sequence (P97470 1-307): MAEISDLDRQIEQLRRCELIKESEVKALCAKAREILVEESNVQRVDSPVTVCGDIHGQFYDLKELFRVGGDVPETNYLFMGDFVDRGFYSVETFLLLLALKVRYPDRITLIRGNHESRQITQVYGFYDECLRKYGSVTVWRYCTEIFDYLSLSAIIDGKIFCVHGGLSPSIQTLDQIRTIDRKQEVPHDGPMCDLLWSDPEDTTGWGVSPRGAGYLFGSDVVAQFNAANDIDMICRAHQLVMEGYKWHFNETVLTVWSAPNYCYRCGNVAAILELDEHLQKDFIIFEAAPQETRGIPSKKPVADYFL
Text: The catalytic subunits of protein phosphatase 4 (PP4c) and 6 (PP6c) are closely related to PP2Ac with approximately 50% sequence identity. PP2Ac, PP4c and PP6c share the C-terminal DYFL or YFL motif, respectively (FIG. 8A). Therefore, a potential cross-reactivity of 7C10-C5 with α-carboxymethylated PP4c and/or PP6c was examined and compared to another anti-carboxymethyl-PP2Ac antibody 2A10. 2A10 is a carboxymethyl-PP2Ac specific antibody that has been raised against a larger C-terminal PP2Ac peptide (amino acids 302-309, carboxymethylated Leu^309) and that has been shown before to cross-react with α-carboxymethylated PP4c (Lee (2014), Biochem Biophys Res Commun 452, 42-47). HA tagged human PP2Ac a, mouse HA PP4c or mouse HA PP6c from NIH3T3 mouse fibroblasts stably expressing these HA-tagged proteins were immunoprecipitated. The precipitated proteins were then analyzed by immunoblotting with anti-carboxymethyl-PP2Ac antibodies 7C10-C5 or 2A10.
Specifically, 500 μl corresponding to 1 mg of whole cell protein lysates of NIH3T3 mouse fibroblasts were incubated with anti-hemagglutinin (HA) antibody (clone 12CA5) crosslinked to BSA-coated protein A-Sepharose beads (GE-Healthcare) to immunoprecipitate HA-epitope tagged PP2Ac, PP4c or PP6c for 1 h. […]

[1] = biological target: α-carboxymethylated PP2Ac (Homo sapiens, UniProt P67775); experiment: IHC tissue microarray analysis of localized and metastatic prostate cancer tissue, Allred scoring; set-up: IHC tissue microarray analyses of prostate cancer tissue with the 7C10-C5 antibody; from tissue; host or cells: localized and metastatic prostate cancer tissue (tissue microarray, FFPE)
Experimental: Immunohistochemical staining was performed on the DAKO Autostainer (DAKO, Carpinteria, Calif.) using Envision+ or liquid streptavidin-biotin and diaminobenzadine (DAB) as the chromogen. De-paraffinized sections were labeled with mouse monoclonal antibody 7C10-C5 (1:200) overnight at 4 C. Microwave 10 mM Tris HCl, pH9 containing 1 mM EDTA epitope retrieval was used prior to staining. Appropriate negative (no primary antibody) and positive controls (pancreas) were stained in parallel with each set of slides studied. Peptide competition studies were performed using 2 peptides ([…]*) (SEQ ID NO:115) differing in the methylation status at position L (marked with a *); FIG. 13E: Peptides were incubated at ambient temperature for 60 mins at 10-1000× molar ratios before being applied to the slide. FIG. 13F: Before being stained, slides were incubated in freshly made 200 mM NaOH for 10 mins at 4° C. and then neutralized by several washes in TBST.
Stained slides were scanned using an APERIO AT2 (Leica) and the digital images imported into QuPath (Bankhead et al., 2017). TMA cores were analyzed for percentage of cells staining and intensity. In FIGS. 13E and F, higher visibility of the dark cell nuclei indicates weaker α-carboxymethylated PP2Ac staining.
The assembly of trimeric tumor-suppressive PP2A holoenzymes is promoted/facilitated by PP2Ac α-carboxymethylation. The PP2Ac α-carboxymethylation levels correlate positively with the levels of methylation-sensitive trimeric PP2A holoenzymes. A truly specific anti-methyl-PP2Ac antibody (7C10-C5) can be used to determine the α-carboxymethylated PP2Ac levels in normal and disease tissue by IHC analyses of tissue microarrays of cancer, normal tissues and tissues obtained from other disease states including but not limited to heart disease, Alzheimers disease, and diabetes. The PP2A methylation status in disease tissue can be graded using the Allred scoring system that scores the proportion of cells that stain by IHC as well as the intensity of the IHC staining. […] Allied scoring is calculated the following way: […]

PP4 = experiment: Summary of cross-reactivities of C-terminal PP2Ac antibodies (Table 4), PP4; conditions: antibodies screened for binding methylated PP2Ac
Text: Examples of antibodies with a preference for non-methylated PP2Ac are mouse monoclonal antibody 4B7 (Yu (2001), Mol Biol Cell 12, 185-199), mouse monoclonal antibody 1D7 generated by the Ogris lab but also the rabbit monoclonal E155 antibody from Abeam and the mouse monoclonal F-8 from SCBT that were thought to be specific for pTyr^307.

[2] = IHC, mean±standard deviation, 12 samples

Chain of α-carboxymethylated PP2Ac (P67775 whole entry): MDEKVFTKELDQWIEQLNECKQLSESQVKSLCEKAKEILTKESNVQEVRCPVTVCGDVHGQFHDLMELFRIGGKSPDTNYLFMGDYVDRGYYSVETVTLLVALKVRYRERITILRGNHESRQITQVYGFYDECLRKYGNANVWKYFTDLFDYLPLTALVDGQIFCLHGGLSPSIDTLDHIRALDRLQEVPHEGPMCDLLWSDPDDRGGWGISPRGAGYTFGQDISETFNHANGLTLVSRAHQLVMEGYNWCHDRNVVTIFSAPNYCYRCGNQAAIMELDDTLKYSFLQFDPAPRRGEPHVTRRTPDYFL

B1: 7C10-C5: α-carboxymethylation specific mouse monoclonal IgG1 antibody from single clone hybridoma 7C10-C5 (DSM ACC3350) (antibody)
heavy: MYRMQLLSCIALSLALVTNSDVQLQESGPGLVKPSQSLSLTCSVTGYSITSGYYWNWIRQFPGNKLEWMGYISYDGSNNYNPSLKNRISITRDTSKNQFFLKLNSVTTEDTATYYCAGRFAYWGQGTLVTVSAAKTTAPSVYPLAPVCGDTTGSSVTLGCLVKGYFPEPVTLTWNSGSLSSGVHTFPAVLQSDLYTLSSSVTVTSSTWPSQSITCNVAHPASSTKVDKKIEPRGPTIKPCPPCKCPAPNLLGGPSVFIFPPKIKDVLMISLSPIVTCVVVDVSEDDPDVQISWFVNNVEVHTAQTQTHREDYNSTLRVVSALPIQHQDWMSGKEFKCKVNNKDLPAPIERTISKPKGSVRAPQVYVLPPPEEEMTKKQVTLTCMVTDFMPEDIYVEWTNNGKTELNYKNTEPVLDSDGSYFMYSKLRVEKKNWVERNSYSCSVVHEGLHNHHTTKSFSRTPGK
light: MDMRVPAQLLGLLLLWLSGARCDVLMTQTPLSLPVSLGDQASISCRSSQSIVHSNGNTYLEWYLQKPGQSPKLLIYKVSNRFSGVPDRFSGSGSGTDFTLKINRVEAEDLGVYYCFQGSHVPWTFGGGTKLEIKADAAPTVSIFPPSSEQLTSGGASVVCFLNNFYPKDINVKWKIDGSERQNGVLNSWTDQDSKDSTYSMSSTLTLTKDEYERHNSYTCEATHKTSTSPIVKSFNRNEC
modifications: Amino acid sequence of the recombinant 7C10-C5 heavy chain; Amino acid sequence of the recombinant 7C10-C5 light chain
HA-PP4c; Western blot of HA immunoprecipitates
  detection of PP4c: did not detect
HA-PP4c; Western blot, suggested since no discernable signal
  binding to carboxymethylated PP2Ac stronger than to carboxymethylated PP4c: 100-fold or even 500-fold
[1]; [2]
  average Allred score, localized prostate cancer tissues: 2.2±2.3
  average Allred score, metastatic prostate cancer tissues: 0.4±1.4
[1]; tissue microarray, Allred score
  discrimination between localized and metastatic prostate cancer by IHC staining: significantly lower levels
PP4
  PP4 meLeu^307: — (— <15%)
